Holding throughout (experiment): SEC; Superdex 200 increase column, 40 mM potassium phosphate, 300 mM NaCl, pH 6.5, 1 mL/min, detection at 220 nm; drug products reconstituted in water for injection
For orientation: In gel filtration, larger molecules generally elute earlier.

Assay [1] has as its target L-Aspase (E. coli L-asparaginase) (E. coli) (UniProt P00805).
For assay [2], the target named is T1, Spectrila (recombinant E. coli L-asparaginase type II) (E. coli), P00805.
T1 chain: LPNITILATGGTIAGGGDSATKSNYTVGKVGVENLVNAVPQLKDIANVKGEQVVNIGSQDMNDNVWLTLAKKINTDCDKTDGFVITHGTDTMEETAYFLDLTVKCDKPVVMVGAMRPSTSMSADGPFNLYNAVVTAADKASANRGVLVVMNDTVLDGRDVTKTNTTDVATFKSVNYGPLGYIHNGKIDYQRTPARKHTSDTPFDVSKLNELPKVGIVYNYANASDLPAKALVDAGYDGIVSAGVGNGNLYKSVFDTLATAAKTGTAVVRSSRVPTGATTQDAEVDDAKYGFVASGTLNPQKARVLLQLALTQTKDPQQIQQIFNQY
The settings on record: remark: other sources report otherwise.

The target in assay [3] is T2, Celginase (E. coli L-asparaginase) (E. coli), P00805.
T2 chain: T1 chain
The settings on record: remark: other sources report otherwise.

The target in assay [4] is T3, Bionase (E. coli L-asparaginase) (E. coli), P00805.
T3 chain: T1 chain
As to conditions: remark: other sources report otherwise.

What is called stoichiometry N is the number of molecules, sites or subunits per partner or assembly.

In the case of “L-Aspase (E. coli L-asparaginase) (from UniProt P00805 23-348) (enzyme)”, the stoichiometry N in assay [1] is 4.

B1: Spectrila (recombinant E. coli L-asparaginase type II), P00805 23-348 (enzyme)
chain: T1 chain
Turning to B1, the stoichiometry N in assay [2] was found to be 4.

B2: Celginase (E. coli L-asparaginase), P00805 23-348 (enzyme)
chain: T1 chain
B2: the stoichiometry N in assay [3] was 4.

B3: Bionase (E. coli L-asparaginase), P00805 23-348 (enzyme)
chain: T1 chain
In assay [4], B3 showed a stoichiometry N of 4.

These data come from paper PMC12169553.
